Results on 94 variants are retold here after the supplement of paper PMC10567573.

To fix the notation:
B1: CLINT1 (parent)
chain: VVTSAREHIYDLRSLENYHFVDEH
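Note: lentivirally expressed fusions sorted by FACS into six bins by GFP to DsRed ratio, PSI derived from sequencing read proportions per bin multiplied by bin number.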

The variants in this series derive from B1. As to the kind of experiment: protein stability index of a GFP-peptide fusion (GPS, HEK-293T) (PSI 1-6); higher = more stable. The conditions noted are these: c terminus: a fixed tail appended.
For the variant VVTSAREHIYDLRSGENYHFVDEH [L15G], the protein stability index was 3.56.

Take VVTSAREHIYDLRSTENYHFVDEH [L15T]: the protein stability index was determined as 3.2.

For the variant VVTSAREHIYDLRSFENYHFVDEH [L15F], the protein stability index came to 2.4.

In the case of VVTSAREHIYDLRSWENYHFVDEH [L15W], the protein stability index was 2.56.

On to VVTSAREHIYDLRSRENYHFVDEH [L15R], for which the protein stability index came to 3.53.

For VVTSAREHIYDLRSNENYHFVDEH [L15N], the protein stability index turned out to be 3.1.

As for VVTSAREHIYDLRSCENYHFVDEH [L15C], the protein stability index is 3.05.

As for VVTSAREHIYDLRSSENYHFVDEH [L15S], the protein stability index stood at 2.95.

For VVTSAREHIYDLRSEENYHFVDEH [L15E], the protein stability index came to 3.46.

Regarding VVTSAREHIYDLRSKENYHFVDEH [L15K], the protein stability index is 3.36.

With VVTSAREHIYDLRSQENYHFVDEH [L15Q], the protein stability index was 3.66.

Turning to VVTSAREHIYDLRSPENYHFVDEH [L15P], the protein stability index came to 3.31.

As to VVTSAREHIYDLRSIENYHFVDEH [L15I], the protein stability index worked out at 2.99.

Consider VVTSAREHIYDLRSHENYHFVDEH [L15H], for which the protein stability index came to 3.58.

As for VVTSAREHIYDLRSMENYHFVDEH [L15M], the protein stability index was 2.62.

In the case of VVTSAREHIYDLRSAENYHFVDEH [L15A], the protein stability index was 3.32.

On to VVTSAREHIYDLRSYENYHFVDEH [L15Y], for which the protein stability index was determined as 2.91.

As for VVTSAREHIYDLRSVENYHFVDEH [L15V], the protein stability index was 3.04.

Regarding VVTSAREHIYDLRSDENYHFVDEH [L15D], the protein stability index was 3.8.

For the variant VVTSAREHIYDLRSLCNYHFVDEH [E16C], the protein stability index worked out at 1.93.

Regarding VVTSAREHIYDLRSLTNYHFVDEH [E16T], the protein stability index came to 2.46.

For the variant VVTSAREHIYDLRSLFNYHFVDEH [E16F], the protein stability index was 2.13.

For VVTSAREHIYDLRSLGNYHFVDEH [E16G], the protein stability index stood at 2.11.

For the variant VVTSAREHIYDLRSLNNYHFVDEH [E16N], the protein stability index was 2.62.

Turning to VVTSAREHIYDLRSLWNYHFVDEH [E16W], the protein stability index was 1.83.

Take VVTSAREHIYDLRSLLNYHFVDEH [E16L]: the protein stability index amounted to 2.47.

VVTSAREHIYDLRSLKNYHFVDEH [E16K]: the protein stability index came to 2.59.

Consider VVTSAREHIYDLRSLHNYHFVDEH [E16H], for which the protein stability index was found to be 2.26.

In the case of VVTSAREHIYDLRSLRNYHFVDEH [E16R], the protein stability index is 2.43.

Turning to VVTSAREHIYDLRSLVNYHFVDEH [E16V], the protein stability index amounted to 2.36.

On to VVTSAREHIYDLRSLQNYHFVDEH [E16Q], for which the protein stability index is 2.38.

VVTSAREHIYDLRSLINYHFVDEH [E16I]: the protein stability index amounted to 2.12.

For the variant VVTSAREHIYDLRSLPNYHFVDEH [E16P], the protein stability index worked out at 3.32.

With VVTSAREHIYDLRSLYNYHFVDEH [E16Y], the protein stability index came out at 1.56.

With VVTSAREHIYDLRSLDNYHFVDEH [E16D], the protein stability index came to 2.77.

Consider VVTSAREHIYDLRSLSNYHFVDEH [E16S], for which the protein stability index was determined as 2.67.

In the case of VVTSAREHIYDLRSLANYHFVDEH [E16A], the protein stability index worked out at 2.19.

With VVTSAREHIYDLRSLMNYHFVDEH [E16M], the protein stability index came to 3.01.

As to VVTSAREHIYTLRSLENYHFVDEH [D11T], the protein stability index amounted to 2.17.

VVTSAREHIYFLRSLENYHFVDEH [D11F]: the protein stability index worked out at 1.25.

Consider VVTSAREHIYKLRSLENYHFVDEH [D11K], for which the protein stability index amounted to 2.13.

As for VVTSAREHIYWLRSLENYHFVDEH [D11W], the protein stability index turned out to be 2.13.

As for VVTSAREHIYQLRSLENYHFVDEH [D11Q], the protein stability index was found to be 2.54.

Turning to VVTSAREHIYALRSLENYHFVDEH [D11A], the protein stability index was 2.79.

For VVTSAREHIYGLRSLENYHFVDEH [D11G], the protein stability index was determined as 2.61.

As to VVTSAREHIYYLRSLENYHFVDEH [D11Y], the protein stability index amounted to 2.02.

VVTSAREHIYRLRSLENYHFVDEH [D11R]: the protein stability index was determined as 2.62.

Regarding VVTSAREHIYILRSLENYHFVDEH [D11I], the protein stability index came out at 2.83.

Regarding VVTSAREHIYPLRSLENYHFVDEH [D11P], the protein stability index was found to be 2.56.

For VVTSAREHIYSLRSLENYHFVDEH [D11S], the protein stability index worked out at 2.64.

Take VVTSAREHIYELRSLENYHFVDEH [D11E]: the protein stability index was determined as 2.38.

For the variant VVTSAREHIYCLRSLENYHFVDEH [D11C], the protein stability index was found to be 2.4.

On to VVTSAREHIYNLRSLENYHFVDEH [D11N], for which the protein stability index was determined as 2.63.

As for VVTSAREHIYLLRSLENYHFVDEH [D11L], the protein stability index is 2.44.

For VVTSAREHIYVLRSLENYHFVDEH [D11V], the protein stability index is 2.89.

As to VVTSAREHIYHLRSLENYHFVDEH [D11H], the protein stability index is 2.3.

Take VVTSAREHIYMLRSLENYHFVDEH [D11M]: the protein stability index came to 2.62.

Turning to VVTSAREHIYDLFSLENYHFVDEH [R13F], the protein stability index stood at 1.73.

On to VVTSAREHIYDLLSLENYHFVDEH [R13L], for which the protein stability index was determined as 1.97.

Turning to VVTSAREHIYDLSSLENYHFVDEH [R13S], the protein stability index came to 3.18.

VVTSAREHIYDLYSLENYHFVDEH [R13Y]: the protein stability index amounted to 1.95.

For the variant VVTSAREHIYDLISLENYHFVDEH [R13I], the protein stability index was 2.49.

On to VVTSAREHIYDLCSLENYHFVDEH [R13C], for which the protein stability index stood at 2.38.

Take VVTSAREHIYDLWSLENYHFVDEH [R13W]: the protein stability index came out at 2.08.

VVTSAREHIYDLQSLENYHFVDEH [R13Q]: the protein stability index amounted to 3.06.

VVTSAREHIYDLNSLENYHFVDEH [R13N]: the protein stability index is 3.35.

In the case of VVTSAREHIYDLVSLENYHFVDEH [R13V], the protein stability index worked out at 2.86.

Turning to VVTSAREHIYDLMSLENYHFVDEH [R13M], the protein stability index amounted to 2.9.

VVTSAREHIYDLDSLENYHFVDEH [R13D]: the protein stability index is 3.59.

In the case of VVTSAREHIYDLTSLENYHFVDEH [R13T], the protein stability index was found to be 3.35.

Regarding VVTSAREHIYDLHSLENYHFVDEH [R13H], the protein stability index is 2.67.

Regarding VVTSAREHIYDLASLENYHFVDEH [R13A], the protein stability index worked out at 3.55.

As for VVTSAREHIYDLGSLENYHFVDEH [R13G], the protein stability index is 2.7.

With VVTSAREHIYDLKSLENYHFVDEH [R13K], the protein stability index was found to be 3.45.

For VVTSAREHIYDLESLENYHFVDEH [R13E], the protein stability index was found to be 3.73.

For VVTSAREHIYDLPSLENYHFVDEH [R13P], the protein stability index was determined as 3.58.

Take VVTSAREHIYDLRSLENFHFVDEH [Y18F]: the protein stability index was 2.5.

For VVTSAREHIYDLRSLENMHFVDEH [Y18M], the protein stability index is 2.88.

Turning to VVTSAREHIYDLRSLENDHFVDEH [Y18D], the protein stability index amounted to 4.14.

As to VVTSAREHIYDLRSLENNHFVDEH [Y18N], the protein stability index worked out at 4.48.

VVTSAREHIYDLRSLENGHFVDEH [Y18G]: the protein stability index was found to be 3.78.

On to VVTSAREHIYDLRSLENSHFVDEH [Y18S], for which the protein stability index stood at 4.05.

As for VVTSAREHIYDLRSLENVHFVDEH [Y18V], the protein stability index was 3.24.

Regarding VVTSAREHIYDLRSLENHHFVDEH [Y18H], the protein stability index turned out to be 3.59.

As to VVTSAREHIYDLRSLENRHFVDEH [Y18R], the protein stability index was found to be 3.72.

For the variant VVTSAREHIYDLRSLENTHFVDEH [Y18T], the protein stability index is 3.94.

In the case of VVTSAREHIYDLRSLENCHFVDEH [Y18C], the protein stability index was found to be 3.3.

As to VVTSAREHIYDLRSLENQHFVDEH [Y18Q], the protein stability index was 3.87.

With VVTSAREHIYDLRSLENAHFVDEH [Y18A], the protein stability index was 3.65.

Take VVTSAREHIYDLRSLENPHFVDEH [Y18P]: the protein stability index is 3.71.

For VVTSAREHIYDLRSLENKHFVDEH [Y18K], the protein stability index was determined as 3.6.

VVTSAREHIYDLRSLENIHFVDEH [Y18I]: the protein stability index was 3.

In the case of VVTSAREHIYDLRSLENEHFVDEH [Y18E], the protein stability index amounted to 4.26.

For VVTSAREHIYDLRSLENLHFVDEH [Y18L], the protein stability index was determined as 2.94.
